Reference: patent US8765908B2, “Compositions for improving bone mass” (The UAB Research Foundation, priority 2010, dated 2014)
Substitutions are numbered along the chain they refer to. Entries after “also recorded” stand apart in the source; their conditions may differ.

How the values were obtained:
[1] = target: T1, RANK fragment 498-556 (Myc-RANK) (Mus musculus, UniProt O35305); experiment: Co-immunoprecipitation with Myc-RANK in 293T cells; format: binding; conditions: cotransfection with Myc-RANK in 293T cells; IP then Western blot
T1 construct: expressed in transfected cells; host or cells: 293T cells
T1 sequence (O35305 498-556): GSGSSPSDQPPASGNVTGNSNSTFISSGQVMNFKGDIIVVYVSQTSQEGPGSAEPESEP
Protocol: (§1) 293T cells were cultured in DMEM containing 10% heat-inactivated fetal bovine serum (HI-FBS) and penicillin/streptomycin (culturing medium). Cells grown near confluence were lifted and replated at density of 5×10^6 cells/dish in 100-mm tissue culture dishes the day before transfection. Total 8 μg plasmid was transfected into 293T cells using Lipofectamine™ in combination of Plus® Reagent (Invitrogen). Briefly, 8 μg plasmid was mixed with 20 μl Plus®Reagent before addition of 350 μl DMEM. The mixture was incubated at RT for 15 min and then added with 380 μl freshly prepared Lipofectamine™ Reagent (Lipofectamine™ Reagent+350 μl DMEM). The complete transfection solution was further incubated at RT for 15 min before being added to one dish of 293T cells which was washed with DMEM twice immediately before the addition of the solution. The cells were incubated at 37° C. for 3 hrs before addition of 6.5 ml culturing medium and the incubation continued overnight. […]
As such, the potential of RYBP as a signaling molecule interacting with the IVVY (SEQ ID NO:4) motif was examined to regulate osteoclastogenesis. […] It was then determined whether the interaction between the RANK fragment and RYBP seen in yeast also occurs in mammalian cells. the cDNA region encoding the bait was cloned into pCMV-Myc vector (BD Biosciences Clontech) to generate Myc-RANK (FIG. 1C). […]

[2] = target: T2, Myc-mRANK (RANK fragment with IVVY to IVAF inactivating mutation) (Mus musculus, UniProt O35305, V537A/Y538F); experiment: Co-immunoprecipitation with Myc-mRANK in 293T cells; format: binding; conditions: cotransfection with Myc-mRANK; IP anti-Myc, WB anti-HA
T2 construct: expressed in transfected cells; host or cells: 293T cells
T2 sequence (O35305 498-556 V537A/Y538F): T1 sequence (O35305 498-556) with V40A, Y41F
Protocol: as §1, with “overnight. Next day, the medium containing the DNA/transfection reagents was replaced with fresh culturing medium.” for “overnight.”
Next, it was determined whether the IVVY (SEQ ID NO:4) motif in the RANK region is specifically responsible for interaction with RYBP. […] Cell lysates were coimmunoprecipitated with anti-Myc antibody and then the precipitates were analyzed by Western analysis with anti-HA antibody.

## HA-RYBP: full-length RYBP cDNA subcloned into pCMV-HA vector
[1]
  interaction with RANK (co-IP band): gave rise to a positive band; also recorded: yielded a positive band
[2]
  interaction with IVVY-mutated RANK (co-IP band): failed to do so
